Assay results from IntAct's records for PubMed 31515488.

B1: Zinc finger protein Aiolos (Homo sapiens), Q9UKT9 (parent)
chain: MEDIQTNAELKSTQEQSVPAESAAVLNDYSLTKSHEMENVDSGEGPANEDEDIGDDSMKVKDEYSERDENVLKSEPMGNAEEPEIPYSYSREYNEYENIKLERHVVSFDSSRPTSGKMNCDVCGLSCISFNVLMVHKRSHTGERPFQCNQCGASFTQKGNLLRHIKLHTGEKPFKCHLCNYACQRRDALTGHLRTHSVEKPYKCEFCGRSYKQRSSLEEHKERCRTFLQSTDPGDTASAEARHIKAEMGSERALVLDRLASNVAKRKSSMPQKFIGEKRHCFDVNYNSSYMYEKESELIQTRMMDQAINNAISYLGAEALRPLVQTPPAPTSEMVPVISSMYPIALTRAEMSNGAPQELEKKSIHLPEKSVPSERGLSPNNSGHDSTDTDSNHEERQNHIYQQNHMVLSRARNGMPLLKEVPRSYELLKPPPICPRDSVKVINKEGEVMDVYRCDHCRVLFLDYVMFTIHMGCHGFRDPFECNMCGYRSHDRYEFSSHIARGEHRALLK
B2: Calcium-binding and coiled-coil domain-containing protein 2 (Homo sapiens), Q13137 (parent)
chain: MEETIKDPPTSAVLLDHCHFSQVIFNSVEKFYIPGGDVTCHYTFTQHFIPRRKDWIGIFRVGWKTTREYYTFMWVTLPIDLNNKSAKQQEVQFKAYYLPKDDEYYQFCYVDEDGVVRGASIPFQFRPENEEDILVVTTQGEVEEIEQHNKELCKENQELKDSCISLQKQNSDMQAELQKKQEELETLQSINKKLELKVKEQKDYWETELLQLKEQNQKMSSENEKMGIRVDQLQAQLSTQEKEMEKLVQGDQDKTEQLEQLKKENDHLFLSLTEQRKDQKKLEQTVEQMKQNETTAMKKQQELMDENFDLSKRLSENEIICNALQRQKERLEGENDLLKRENSRLLSYMGLDFNSLPYQVPTSDEGGARQNPGLAYGNPYSGIQESSSPSPLSIKKCPICKADDICDHTLEQQQMQPLCFNCPICDKIFPATEKQIFEDHVFCHSL
partner: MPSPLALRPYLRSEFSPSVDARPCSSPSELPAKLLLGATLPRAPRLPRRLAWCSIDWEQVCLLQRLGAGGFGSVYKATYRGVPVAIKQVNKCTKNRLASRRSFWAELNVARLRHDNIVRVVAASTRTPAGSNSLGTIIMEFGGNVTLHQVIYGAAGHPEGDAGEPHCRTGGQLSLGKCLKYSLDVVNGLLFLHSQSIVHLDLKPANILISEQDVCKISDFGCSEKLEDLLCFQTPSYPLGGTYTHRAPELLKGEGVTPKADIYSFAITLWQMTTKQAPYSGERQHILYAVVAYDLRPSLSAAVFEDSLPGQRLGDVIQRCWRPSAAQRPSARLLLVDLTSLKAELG
B3: Nucleoporin p54 (Homo sapiens), Q7Z3B4 (parent)
chain: MAFNFGAPSGTSGTAAATAAPAGGFGGFGTTSTTAGSAFSFSAPTNTGTTGLFGGTQNKGFGFGTGFGTTTGTSTGLGTGLGTGLGFGGFNTQQQQQTTLGGLFSQPTQAPTQSNQLINTASALSAPTLLGDERDAILAKWNQLQAFWGTGKGYFNNNIPPVEFTQENPFCRFKAVGYSCMPSNKDEDGLVVLVFNKKETEIRSQQQQLVESLHKVLGGNQTLTVNVEGTKTLPDDQTEVVIYVVERSPNGTSRRVPATTLYAHFEQANIKTQLQQLGVTLSMTRTELSPAQIKQLLQNPPAGVDPIIWEQAKVDNPDSEKLIPVPMVGFKELLRRLKVQDQMTKQHQTRLDIISEDISELQKNQTTSVAKIAQYKRKLMDLSHRTLQVLIKQEIQRKSGYAIQADEEQLRVQLDTIQGELNAPTQFKGRLNELMSQIRMQNHFGAVRSEERYYIDADLLREIKQHLKQQQEGLSHLISIIKDDLEDIKLVEHGLNETIHIRGGVFS

Variants of: B1
Conditions: with aakb2_human PRKAB2, O43741
Chain of aakb2_human PRKAB2, O43741 (O43741 whole entry): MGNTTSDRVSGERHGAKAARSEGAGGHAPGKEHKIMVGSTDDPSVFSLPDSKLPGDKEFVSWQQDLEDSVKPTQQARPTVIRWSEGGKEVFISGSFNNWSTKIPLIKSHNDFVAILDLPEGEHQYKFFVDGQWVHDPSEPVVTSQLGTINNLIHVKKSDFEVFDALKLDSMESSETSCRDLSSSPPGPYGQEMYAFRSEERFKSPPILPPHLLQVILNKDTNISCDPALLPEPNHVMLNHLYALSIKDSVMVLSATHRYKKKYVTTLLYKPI
With N119D the “effect of a mutation on the interaction” value was “with no effect”. For A24V, the “effect of a mutation on the interaction” value was “with no effect”.

Variants of: B1
Conditions: with exoc8_human EXOC8, Q8IYI6
Chain of exoc8_human EXOC8, Q8IYI6 (Q8IYI6 whole entry): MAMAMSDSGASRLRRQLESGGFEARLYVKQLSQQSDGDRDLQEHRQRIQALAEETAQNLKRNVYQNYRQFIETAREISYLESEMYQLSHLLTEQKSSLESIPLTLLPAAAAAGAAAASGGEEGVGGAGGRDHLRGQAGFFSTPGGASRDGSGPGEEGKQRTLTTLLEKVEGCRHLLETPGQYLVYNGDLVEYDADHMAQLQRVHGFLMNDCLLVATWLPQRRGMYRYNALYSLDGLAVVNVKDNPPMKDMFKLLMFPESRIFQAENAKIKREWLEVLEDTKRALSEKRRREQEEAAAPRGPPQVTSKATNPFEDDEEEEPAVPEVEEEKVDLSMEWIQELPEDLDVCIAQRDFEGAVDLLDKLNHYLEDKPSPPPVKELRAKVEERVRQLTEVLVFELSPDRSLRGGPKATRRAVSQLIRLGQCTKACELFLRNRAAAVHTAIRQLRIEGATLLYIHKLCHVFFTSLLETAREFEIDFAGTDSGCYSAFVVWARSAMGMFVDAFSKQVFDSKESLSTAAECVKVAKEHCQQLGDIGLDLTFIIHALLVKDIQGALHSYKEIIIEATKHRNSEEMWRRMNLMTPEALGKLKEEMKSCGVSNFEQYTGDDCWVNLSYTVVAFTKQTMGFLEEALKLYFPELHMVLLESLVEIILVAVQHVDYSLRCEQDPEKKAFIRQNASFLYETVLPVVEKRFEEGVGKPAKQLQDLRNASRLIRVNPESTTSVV
With N119D the “effect of a mutation on the interaction” value was “with no effect”. In the case of A24V, the “effect of a mutation on the interaction” value is reported as “with no effect”.

Variants of: B1
Conditions: with tb22b_human TBC1D22B
With N119D the “effect of a mutation on the interaction” value was “with no effect”. For A24V, the “effect of a mutation on the interaction” value was “with no effect”.

Variants of: B1
Conditions: with p85b_human PIK3R2, O00459
Chain of p85b_human PIK3R2, O00459 (O00459 whole entry): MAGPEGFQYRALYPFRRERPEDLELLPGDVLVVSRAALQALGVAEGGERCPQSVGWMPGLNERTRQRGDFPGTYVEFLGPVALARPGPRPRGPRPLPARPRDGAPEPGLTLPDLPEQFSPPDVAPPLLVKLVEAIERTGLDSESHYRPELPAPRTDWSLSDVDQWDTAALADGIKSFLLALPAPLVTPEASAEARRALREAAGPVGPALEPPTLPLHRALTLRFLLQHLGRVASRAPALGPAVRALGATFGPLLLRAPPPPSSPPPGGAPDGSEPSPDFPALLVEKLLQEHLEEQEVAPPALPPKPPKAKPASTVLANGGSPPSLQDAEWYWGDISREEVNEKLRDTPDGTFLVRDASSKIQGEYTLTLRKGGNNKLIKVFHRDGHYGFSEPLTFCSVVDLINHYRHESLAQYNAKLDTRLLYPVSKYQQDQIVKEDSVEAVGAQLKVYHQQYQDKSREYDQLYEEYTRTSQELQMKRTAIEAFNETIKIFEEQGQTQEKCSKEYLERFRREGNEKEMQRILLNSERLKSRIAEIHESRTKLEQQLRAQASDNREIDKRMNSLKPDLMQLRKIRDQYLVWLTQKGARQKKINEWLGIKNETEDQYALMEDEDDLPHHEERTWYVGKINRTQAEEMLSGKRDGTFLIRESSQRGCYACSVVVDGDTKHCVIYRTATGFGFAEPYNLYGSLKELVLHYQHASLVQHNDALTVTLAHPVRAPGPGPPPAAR
In the case of N119D, the “effect of a mutation on the interaction” value is reported as “disrupting interaction strength”. For A24V, the “effect of a mutation on the interaction” value was “with no effect”.

Variants of: B1
Conditions: with rpac1_human POLR1C
In the case of N119D, the “effect of a mutation on the interaction” value is reported as “with no effect”. A24V was tested, and the “effect of a mutation on the interaction” value was “with no effect”.

Variants of: B1
Conditions: with pfd5_human PFDN5, Q99471
Chain of pfd5_human PFDN5, Q99471 (Q99471 whole entry): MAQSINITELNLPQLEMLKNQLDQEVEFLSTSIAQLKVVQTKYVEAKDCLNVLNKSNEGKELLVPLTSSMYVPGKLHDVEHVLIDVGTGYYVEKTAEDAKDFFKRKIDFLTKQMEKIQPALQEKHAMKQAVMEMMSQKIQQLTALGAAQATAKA
With N119D the “effect of a mutation on the interaction” value was “with no effect”. A24V was tested, and the “effect of a mutation on the interaction” value was “with no effect”.

Variants of: B1
Conditions: with nek6_human NEK6, Q9HC98
Chain of nek6_human NEK6, Q9HC98 (Q9HC98 whole entry): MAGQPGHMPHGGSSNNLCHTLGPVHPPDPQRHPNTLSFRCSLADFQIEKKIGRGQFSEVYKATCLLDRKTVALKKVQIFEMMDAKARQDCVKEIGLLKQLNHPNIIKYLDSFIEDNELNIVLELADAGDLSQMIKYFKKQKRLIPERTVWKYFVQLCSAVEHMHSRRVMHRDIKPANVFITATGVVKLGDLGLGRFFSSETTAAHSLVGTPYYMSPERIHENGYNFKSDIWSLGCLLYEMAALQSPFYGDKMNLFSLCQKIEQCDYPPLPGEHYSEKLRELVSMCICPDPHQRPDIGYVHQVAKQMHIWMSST
N119D was tested, and the “effect of a mutation on the interaction” value was “with no effect”. A24V was tested, and the “effect of a mutation on the interaction” value was “with no effect”.

Variants of: B1
Conditions: with exos5_human EXOSC5, Q9NQT4
Chain of exos5_human EXOSC5, Q9NQT4 (Q9NQT4 whole entry): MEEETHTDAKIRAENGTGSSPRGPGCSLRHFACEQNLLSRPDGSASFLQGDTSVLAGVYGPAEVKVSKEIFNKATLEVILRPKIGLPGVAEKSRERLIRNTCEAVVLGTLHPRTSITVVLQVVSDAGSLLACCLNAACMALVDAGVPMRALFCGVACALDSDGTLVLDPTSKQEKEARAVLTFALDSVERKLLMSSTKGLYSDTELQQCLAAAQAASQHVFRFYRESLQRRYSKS
N119D was tested, and the “effect of a mutation on the interaction” value was “with no effect”. A24V was tested, and the “effect of a mutation on the interaction” value was “with no effect”.

Variants of: B1
Conditions: with tstd2_human TSTD2, Q5T7W7
Chain of tstd2_human TSTD2, Q5T7W7 (Q5T7W7 whole entry): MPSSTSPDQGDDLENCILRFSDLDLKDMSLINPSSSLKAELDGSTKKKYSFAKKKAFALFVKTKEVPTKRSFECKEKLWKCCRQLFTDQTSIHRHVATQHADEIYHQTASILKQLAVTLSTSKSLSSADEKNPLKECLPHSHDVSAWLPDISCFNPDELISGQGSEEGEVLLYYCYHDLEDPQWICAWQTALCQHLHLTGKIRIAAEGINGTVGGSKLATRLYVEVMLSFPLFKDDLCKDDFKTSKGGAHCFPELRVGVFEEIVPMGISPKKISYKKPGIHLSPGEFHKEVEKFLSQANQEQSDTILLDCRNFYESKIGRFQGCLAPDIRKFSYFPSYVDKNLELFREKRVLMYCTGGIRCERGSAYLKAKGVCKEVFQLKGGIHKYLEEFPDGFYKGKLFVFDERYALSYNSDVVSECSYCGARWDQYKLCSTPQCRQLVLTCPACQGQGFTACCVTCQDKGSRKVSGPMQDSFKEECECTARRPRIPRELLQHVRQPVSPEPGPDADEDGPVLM
N119D was tested, and the “effect of a mutation on the interaction” value was “with no effect”. In the case of A24V, the “effect of a mutation on the interaction” value is reported as “with no effect”.

Variants of: B1
Conditions: with aakb2_human PRKAB2, O43741
Remark: another data set of the same source
For I338M, the “effect of a mutation on the interaction” value was “with no effect”.

Variants of: B1
Conditions: with pfd5_human PFDN5, Q99471
Remark: another data set of the same source
With I338M the “effect of a mutation on the interaction” value was “with no effect”.

Variants of: B1
Conditions: with p85b_human PIK3R2, O00459
Remark: another data set of the same source
For I338M, the “effect of a mutation on the interaction” value was “with no effect”.

Variants of: B2
Conditions: with mos_human MOS
E222K was tested, and the “effect of a mutation on the interaction” value was “with no effect”.

Variants of: B3
Conditions: with nup62_human NUP62, P37198
Chain of nup62_human NUP62, P37198 (P37198 whole entry): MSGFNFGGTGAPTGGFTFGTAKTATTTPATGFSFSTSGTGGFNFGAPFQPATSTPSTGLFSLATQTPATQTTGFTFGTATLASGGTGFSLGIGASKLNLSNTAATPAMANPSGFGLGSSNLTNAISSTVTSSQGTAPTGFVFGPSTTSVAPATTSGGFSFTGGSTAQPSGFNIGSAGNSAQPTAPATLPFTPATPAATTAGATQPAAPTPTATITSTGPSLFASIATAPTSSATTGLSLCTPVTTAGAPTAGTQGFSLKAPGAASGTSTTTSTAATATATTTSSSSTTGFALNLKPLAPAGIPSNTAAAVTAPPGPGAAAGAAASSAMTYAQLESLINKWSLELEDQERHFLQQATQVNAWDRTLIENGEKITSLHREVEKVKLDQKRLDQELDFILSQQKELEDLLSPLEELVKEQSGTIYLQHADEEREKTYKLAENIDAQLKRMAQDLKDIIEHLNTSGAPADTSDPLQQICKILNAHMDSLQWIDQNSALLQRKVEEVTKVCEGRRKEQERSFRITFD
For N250S, the “effect of a mutation on the interaction” value was “with no effect”.

Variants of: B3
Conditions: with nup58_human NUP58, Q9BVL2
Chain of nup58_human NUP58, Q9BVL2 (Q9BVL2 whole entry): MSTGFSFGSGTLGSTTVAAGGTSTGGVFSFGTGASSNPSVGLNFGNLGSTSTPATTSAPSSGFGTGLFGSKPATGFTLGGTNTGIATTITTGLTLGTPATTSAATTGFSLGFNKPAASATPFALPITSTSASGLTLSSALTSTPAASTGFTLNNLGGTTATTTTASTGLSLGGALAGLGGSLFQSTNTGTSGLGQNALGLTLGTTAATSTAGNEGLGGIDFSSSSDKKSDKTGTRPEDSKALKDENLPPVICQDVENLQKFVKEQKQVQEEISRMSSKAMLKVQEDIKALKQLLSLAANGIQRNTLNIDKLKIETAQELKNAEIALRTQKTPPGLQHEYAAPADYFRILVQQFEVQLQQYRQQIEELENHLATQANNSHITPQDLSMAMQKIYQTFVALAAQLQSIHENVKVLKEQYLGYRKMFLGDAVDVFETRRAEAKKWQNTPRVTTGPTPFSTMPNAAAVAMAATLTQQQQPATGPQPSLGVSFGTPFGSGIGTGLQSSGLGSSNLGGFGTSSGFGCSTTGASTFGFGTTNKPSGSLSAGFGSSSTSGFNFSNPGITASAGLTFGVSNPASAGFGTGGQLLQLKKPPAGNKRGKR
With N250S the “effect of a mutation on the interaction” value was “with no effect”.

Variants of: B3
Conditions: with hgs_human HGS
For N250S, the “effect of a mutation on the interaction” value was “with no effect”.

Variants of: B3
Conditions: with KRT15, P19012
Chain of KRT15, P19012 (P19012 whole entry): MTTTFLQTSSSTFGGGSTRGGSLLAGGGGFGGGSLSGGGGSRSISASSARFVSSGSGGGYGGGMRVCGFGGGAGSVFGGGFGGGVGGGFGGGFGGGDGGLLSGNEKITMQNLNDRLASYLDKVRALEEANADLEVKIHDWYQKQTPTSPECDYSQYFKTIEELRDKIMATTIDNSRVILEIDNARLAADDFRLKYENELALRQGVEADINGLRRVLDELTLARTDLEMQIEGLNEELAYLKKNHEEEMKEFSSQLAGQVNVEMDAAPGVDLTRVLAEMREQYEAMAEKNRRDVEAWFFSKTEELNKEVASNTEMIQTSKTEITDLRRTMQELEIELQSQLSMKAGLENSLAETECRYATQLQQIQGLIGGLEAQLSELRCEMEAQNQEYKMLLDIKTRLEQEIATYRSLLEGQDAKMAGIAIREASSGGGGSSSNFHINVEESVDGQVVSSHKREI
In the case of N250S, the “effect of a mutation on the interaction” value is reported as “with no effect”.
